In publication doi:10.1101/2025.09.29.679115:

What was measured:
[1] = biological target: T1, MBP-HSFA1d (Arabidopsis thaliana, UniProt Q9LQM7 1-485); assay: EMSA
[2] = biological target: T1, MBP-HSFA1d; assay: competition

T1 sequence (Q9LQM7 whole entry): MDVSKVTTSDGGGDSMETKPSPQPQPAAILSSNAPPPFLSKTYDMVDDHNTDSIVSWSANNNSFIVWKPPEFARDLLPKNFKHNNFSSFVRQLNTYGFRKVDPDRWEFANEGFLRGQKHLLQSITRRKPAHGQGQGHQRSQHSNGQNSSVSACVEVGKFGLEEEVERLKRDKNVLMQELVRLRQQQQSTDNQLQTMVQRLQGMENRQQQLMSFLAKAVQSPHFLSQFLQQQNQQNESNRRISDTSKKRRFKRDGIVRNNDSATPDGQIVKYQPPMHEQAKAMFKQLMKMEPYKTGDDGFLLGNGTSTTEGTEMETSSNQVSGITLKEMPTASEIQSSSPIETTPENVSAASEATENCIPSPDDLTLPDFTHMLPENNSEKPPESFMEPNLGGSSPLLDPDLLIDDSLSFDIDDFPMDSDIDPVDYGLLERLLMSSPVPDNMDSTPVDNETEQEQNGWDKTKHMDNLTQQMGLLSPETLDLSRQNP

Row | Binder | binding result [1] | binding result [2]
1 | ZAT6 promoter probe (dsDNA) DNA 1: AATTCTTATCACTTAAGAATATTCTAGAGAGCTCTCACTT DNA 2: AAGTGAGAGCTCTCTAGAATATTCTTAAGTGATAAGAATT | binds | –
2 | WIND1_m probe (dsDNA) DNA 1: AATCCCTCCCTAAACCTCTATGGGACCTTATTAATTTTTG DNA 2: CAAAAATTAATAAGGTCCCATAGAGGTTTAGGGAGGGATT | no binding | –
3 | WIND1 promoter probe (dsDNA) DNA 1: AATCCCTCCCTAAACCTCTAGAGAGTTCTATTAATTTTTG DNA 2: CAAAAATTAATAGAACTCTCTAGAGGTTTAGGGAGGGATT | binds | –
4 | WIND1 unlabelled competitor (dsDNA) DNA 1: AATCCCTCCCTAAACCTCTAGAGAGTTCTATTAATTTTTG DNA 2: CAAAAATTAATAGAACTCTCTAGAGGTTTAGGGAGGGATT | – | binds
